Assay results taken from publication PMC7907060, “Interaction of Plasmodium falciparum apicortin with α- and β-tubulin is critical for parasite growth and survival” (Scientific Reports, 2021).

Legend:
[1] = molecular target: T1, recombinant Plasmodium falciparum β-tubulin (Plasmodium falciparum, UniProt Q7KQL5 1-445); experiment: SPR; apicortin (12 µM) immobilised by amine coupling on a gold sensor chip; tubulins 100 nM-1 µM injected, 500 s; PBS; Autolab ESPRIT; details: both partners purified
T1 construct: Plasmodium falciparum β-tubulin, cloned in pET28a+; also called Pfβ-tubulin

[2] = molecular target: T2, recombinant Plasmodium falciparum α-tubulin-I (Plasmodium falciparum, UniProt Q6ZLZ9 1-453); experiment: as above; details: both partners purified
T2 construct: Plasmodium falciparum α-tubulin-I, cloned in pET28a+; also called Pfα-tubulin-I

B1: recombinant Plasmodium falciparum apicortin (natural protein, UniProt C0H4E4 1-238, looked up)
chain: MENFDEVIKEYQKYLEGKEKTHKINSCKHPCCEEDNLKSVKNYFKVYHKKYIPSIIQKKKKERNEHAPPLLKDIQDKRCTNVFERLNDKQFYTGVQKTKFMELLKNNKNKSSYCYNNIKVFSTMLKKPCNYVVTPGTLGIQKYGIQTGRPKTIFLFNNEKKYDKGVYFLVKSYIKNIKSLCYEITKILQPSIGPTRKIYDQNFSLVRNVNDLINGGKYLCTSGDPPAPIRNLSLHFLT
notes: Plasmodium falciparum apicortin, cloned in pET28a+; the His tag is surmised from pET28a+ and Ni-NTA; also called PfApicortin
In the case of B1, the Kd [1] is reported as 750 nM and the Kd [2] is reported as 120 nM.
